The record followed here is US20250019740.

Data set [1] relates to synthetic substrate peptide […].
The test system of data set [2] is MBP-ENLYFQS-GST fusion protein.
The target of data set [3] is synthetic substrate peptide […]. The source holds these as a separate data set.

Where two headings read alike, the source gives them in different places.

As to “TEV variant E1 (Q74L, S200N on the TEV-EAV template)”, the “activity on the peptide in vitro” value in data set [1] is “six selected clones showed higher activity on the peptide […] (SEQ ID NO:33) compared to TEV-EAV”.

Take “TEV variant E2 (S3I, P8Q, S31T, A231V on the TEV-EAV template)”: in data set [1], the “activity on the peptide in vitro” value is “six selected clones showed higher activity on the peptide […] (SEQ ID NO:33) compared to TEV-EAV”.

For the molecule “TEV variant E5 (K6M, S15L on the TEV-EAV template)”, in data set [1], the “activity on the peptide in vitro” value was “six selected clones showed higher activity on the peptide […] (SEQ ID NO:33) compared to TEV-EAV”.

As to “TEV variant S6 (E79S, A173G, V219S on the TEV-EAV template)”, in data set [1], the “activity on the peptide in vitro” value was “six selected clones showed higher activity on the peptide […] (SEQ ID NO:33) compared to TEV-EAV”.

Regarding “TEV variant S7 (E79G, S219R on the TEV-EAV template)”, the “activity on the peptide in vitro” value in data set [1] was “six selected clones showed higher activity on the peptide […] (SEQ ID NO:33) compared to TEV-EAV”.

As to “TEV variant S8 (A173D, V219K on the TEV-EAV template)”, in data set [1], the “activity on the peptide in vitro” value is “six selected clones showed higher activity on the peptide […] (SEQ ID NO:33) compared to TEV-EAV”.

As to TEV-S219P, the “percent of fusion protein digested in 40 minutes at 30° C. at a 1:100 ratio” value in data set [2] is “compared to ˜68% for TEV-EAV and TEV-S219P”.

uTEV3: in data set [2], the “percent of fusion cleaved after 30 mins at a 1:200 protease to substrate ratio” value was “compared to only 30% cleavage with uTEV3”. The KM entry in data set [1] is given as “the improved catalytic efficiency in uTEV3 appears to be mainly due to a significant KM decrease”.

B1: TEV-EAV, triple mutant TEV variant (G79E, T173A, S219V) (protein)
chain: GESLFKGPRDYNPISSTICHLTNESDGHTTSLYGIGFGPFIITNKHLFRRNNGTLLVQSLHGVFKVKNTTTLQQHLIDERDMIIIRMPKDFPPFPQKLKFREPQREERICLVTNFQTKSMSSMVSDTSCTFPSSDGIFWKHWIQTKDGQCGSPLVSTRDGFIVGIHSASNFANTNNYFTSVPKNFMELLTNQEAQQWVSGWRLNADSVLWGGHKVFMVKPEEPFQPVKEATQLM
In the case of B1, in data set [3], the KM result is given as “KM of eTEV remained unchanged at 65 µM with that of TEV-EAV” and the “turnover rate (kcat)” value is “the turnover rate (kcat) was improved from 0.17 s^-1 to 0.41 s^-1”.

B2: enhanced TEV "eTEV" mutant TEV protease (S3I, P8Q, S31T, E79G, T173A, S219R, A231V) (protein)
chain: ILFKGQRDYNPISSTICHLTNESDGHTTTLYGIGFGPFIITNKHLFRRNNGTLLVQSLHGVFKVKNTTTLQQHLIDGRDMIIIRMPKDFPPFPQKLKFREPQREERICLVTTNFQTKSMSSMVSDTSCTFPSSDGIFWKHWIQTKDGQCGSPLVSTRDGFIVGIHSASNFANTNNYFTSVPKNFMELLTNQEAQQWVSGWRLNADSVLWGGHKVFMRKPEEPFQPVKEVTQLMRRRRR
As to B2, in data set [3], the KM entry was “KM of eTEV remained unchanged at 65 µM with that of TEV-EAV”, the “fold decreased KM compared to TEV-S219P” value is recorded as 2.77-fold decreased KM, the “fold improvement in catalytic efficiency (kcat/KM) compared to TEV-EAV” value was 2-fold improvement in catalytic efficiency (kcat/KM) compared to TEV-EAV and the “fold increase in catalytic efficiency relative to the parent TEV-S219P” value is recorded as ~8-fold overall increase in catalytic efficiency relative to the parent TEV-S219P. Further, in data set [3], the “fold increased catalytic turnover rate (kcat) compared to TEV-S219P” value was 2.73-fold increased catalytic turnover rate (kcat) and the “turnover rate (kcat)” value is reported as “the turnover rate (kcat) was improved from 0.17 s^-1 to 0.41 s^-1”.
